Drawing on patent US20160251438A1, this text covers Ratio of EC50 (mutant / wt), residual binding on mutant by comparison to WT and ratio of EC50 (mutant vs WT) for two molecules.

The target of test [1] is GARP / TGF-β1 Y336Q complex (human) (UniProt Q14392). Description: FACS titration on transfected 293T; EC50 mutant / EC50 WT.
Test [2] shares this target. Description: flow cytometry on transfected 293T cells, 5 ug/ml; grade of Loss of binding read by footnote 2. (In general: Flow cytometry measures light scatter and fluorescence of single cells or particles in a stream.)
Test [3] has the same target. Description: flow cytometry titration on transfected 293T cells; grade of Reduced avidity read by footnote 3.
Test [4] has the same target. As to the kind of experiment: FACS titration on transfected 293T; EC50 mutant / EC50 WT [cont.) B].

Chain of GARP / TGF-β1 Y336Q complex (human) (Q14392 20-662, chain 1 of 2): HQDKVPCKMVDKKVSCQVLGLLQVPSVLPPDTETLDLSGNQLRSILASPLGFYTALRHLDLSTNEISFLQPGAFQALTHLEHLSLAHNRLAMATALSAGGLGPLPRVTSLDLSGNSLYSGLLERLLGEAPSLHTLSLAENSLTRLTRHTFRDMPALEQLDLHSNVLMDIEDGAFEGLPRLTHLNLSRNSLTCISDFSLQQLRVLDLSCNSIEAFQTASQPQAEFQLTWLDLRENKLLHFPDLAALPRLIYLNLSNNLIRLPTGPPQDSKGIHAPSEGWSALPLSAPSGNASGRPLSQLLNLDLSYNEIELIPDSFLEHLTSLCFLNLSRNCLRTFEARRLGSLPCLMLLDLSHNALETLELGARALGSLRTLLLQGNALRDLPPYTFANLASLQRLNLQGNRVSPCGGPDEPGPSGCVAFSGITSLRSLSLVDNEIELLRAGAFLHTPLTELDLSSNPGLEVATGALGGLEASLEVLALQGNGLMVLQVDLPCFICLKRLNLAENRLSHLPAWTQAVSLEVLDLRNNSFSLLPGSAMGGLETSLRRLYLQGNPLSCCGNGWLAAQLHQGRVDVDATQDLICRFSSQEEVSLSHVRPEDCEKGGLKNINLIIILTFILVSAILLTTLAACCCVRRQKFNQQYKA
Chain of GARP / TGF-β1 Y336Q complex (human) (P01137 30-390 Y336Q, chain 2 of 2, further chain): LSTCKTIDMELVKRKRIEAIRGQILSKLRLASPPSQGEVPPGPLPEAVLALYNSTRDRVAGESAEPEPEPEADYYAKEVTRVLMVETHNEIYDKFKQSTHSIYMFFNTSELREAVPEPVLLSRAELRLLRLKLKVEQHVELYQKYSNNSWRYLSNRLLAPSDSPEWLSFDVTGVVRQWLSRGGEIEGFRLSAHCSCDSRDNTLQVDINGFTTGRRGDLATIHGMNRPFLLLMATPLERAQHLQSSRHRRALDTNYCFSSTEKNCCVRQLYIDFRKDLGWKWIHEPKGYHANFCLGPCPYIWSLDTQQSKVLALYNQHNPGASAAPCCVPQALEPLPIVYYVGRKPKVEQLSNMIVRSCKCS

B1: MHGARP8 (antibody, V domains shown)
VH: QVQLKESGPGLVAPSQSLSITCTVSGFSLTGYGINWVRQPPGKGLEWLGMIWSDGSTDYNSVLTSRLRISKDNSNSQVFLKMNSLQVDDTARYYCARDRNYYDYDGAMDYWGQGTSVTVSS
VL: DIQVTQSSSYLSVSLGDRVTITCKASDHIKNWLAWYQQKPGIAPRLLVSGATSLEAGVPSRFSGSGSGKNFTLSITSLQTEDVATYYCQQYWSTPWTFGGGTTLEIR
Turning to B1, in test [1], the Ratio of EC50 (mutant / wt) was found to be 0.9. In test [2], this molecule gave a residual binding on mutant by comparison to WT above 50%.

B2: LHG-10 (antibody, human IgG1, V domains shown)
VH: EVQLVQPGAELRNSGASVKVSCKASGYRFTSYYIDWVRQAPGQGLEWMGRIDPEDGGTKYAQKFQGRVTFTADTSTSTAYVELSSLRSEDTAVYYCARNEWETVVVGDLMYEYEYWGQGTQVTVSS
VL: DIQMTQSPTSLSASLGDRVTITCQASQSISSYLAWYQQKPGQAPKLLIYGASRLQTGVPSRFSGSGSGTSFTLTISGLEAEDAGTYYCQQYDSLPVTFGQGTKVELK
Regarding B2, in test [3], the ratio of EC50 (mutant vs WT) was below 2. Besides, the Ratio of EC50 (mutant / wt) in test [4] stood at 1.1. For the same molecule, the residual binding on mutant by comparison to WT in test [2] was above 50%.
